In patent US20220332804A1 (CSL INNOVATION, published 2022):

What was measured:
Experiment in all cases: SPR, antibody captured, C2 as analyte;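 note: biacore at 37 °C, anti-C2 mAbs held by immobilised goat anti-human IgG, C2 alanine or serine mutants injected, double-referenced sensorgrams fitted to a 1:1 kinetic or steady-state model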
human C2 R434A = biological target: T1, human C2 R434A (human, UniProt P06681 21-752)
T1 sequence: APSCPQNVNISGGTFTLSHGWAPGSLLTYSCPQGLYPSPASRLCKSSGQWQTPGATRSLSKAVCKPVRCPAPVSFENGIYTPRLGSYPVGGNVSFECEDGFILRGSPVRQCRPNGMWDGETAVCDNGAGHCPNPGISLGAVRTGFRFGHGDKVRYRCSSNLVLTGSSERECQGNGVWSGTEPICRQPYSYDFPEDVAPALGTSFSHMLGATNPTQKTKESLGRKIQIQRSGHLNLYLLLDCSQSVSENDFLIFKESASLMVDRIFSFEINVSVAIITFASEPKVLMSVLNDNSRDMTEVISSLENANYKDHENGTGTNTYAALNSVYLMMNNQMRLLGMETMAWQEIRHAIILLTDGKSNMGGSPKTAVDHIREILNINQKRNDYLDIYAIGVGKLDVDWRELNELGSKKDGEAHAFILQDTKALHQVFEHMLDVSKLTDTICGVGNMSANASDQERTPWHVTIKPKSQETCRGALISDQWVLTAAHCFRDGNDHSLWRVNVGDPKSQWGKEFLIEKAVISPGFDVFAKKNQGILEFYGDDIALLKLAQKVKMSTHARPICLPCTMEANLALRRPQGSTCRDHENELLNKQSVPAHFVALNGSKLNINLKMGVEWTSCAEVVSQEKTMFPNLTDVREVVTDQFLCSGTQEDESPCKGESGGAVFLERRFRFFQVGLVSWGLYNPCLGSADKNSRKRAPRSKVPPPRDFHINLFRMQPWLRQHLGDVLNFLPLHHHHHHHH

human C2 H435A = biological target: T2, human C2 H435A (human, UniProt P06681 21-752)
T2 sequence: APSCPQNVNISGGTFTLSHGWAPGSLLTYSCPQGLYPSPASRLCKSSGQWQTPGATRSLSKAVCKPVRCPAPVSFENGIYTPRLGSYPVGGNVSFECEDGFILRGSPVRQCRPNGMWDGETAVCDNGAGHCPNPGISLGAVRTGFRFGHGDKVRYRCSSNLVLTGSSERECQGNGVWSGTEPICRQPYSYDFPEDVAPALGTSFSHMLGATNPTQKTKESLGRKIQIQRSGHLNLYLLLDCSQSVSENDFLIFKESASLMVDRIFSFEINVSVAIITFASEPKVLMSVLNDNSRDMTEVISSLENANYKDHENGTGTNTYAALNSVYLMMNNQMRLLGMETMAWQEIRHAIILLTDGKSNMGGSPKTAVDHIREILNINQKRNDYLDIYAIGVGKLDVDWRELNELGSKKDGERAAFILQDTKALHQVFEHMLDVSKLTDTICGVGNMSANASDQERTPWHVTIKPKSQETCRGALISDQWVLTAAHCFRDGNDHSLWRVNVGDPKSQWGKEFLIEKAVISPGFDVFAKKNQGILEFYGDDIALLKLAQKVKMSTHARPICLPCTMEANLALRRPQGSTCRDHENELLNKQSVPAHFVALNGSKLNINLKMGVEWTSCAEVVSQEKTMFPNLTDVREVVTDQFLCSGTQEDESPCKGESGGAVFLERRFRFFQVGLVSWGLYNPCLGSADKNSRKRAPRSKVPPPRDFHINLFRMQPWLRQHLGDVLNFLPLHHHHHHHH

human C2 Q447A = biological target: T3, human C2 Q447A (human, UniProt P06681 21-752)
T3 sequence: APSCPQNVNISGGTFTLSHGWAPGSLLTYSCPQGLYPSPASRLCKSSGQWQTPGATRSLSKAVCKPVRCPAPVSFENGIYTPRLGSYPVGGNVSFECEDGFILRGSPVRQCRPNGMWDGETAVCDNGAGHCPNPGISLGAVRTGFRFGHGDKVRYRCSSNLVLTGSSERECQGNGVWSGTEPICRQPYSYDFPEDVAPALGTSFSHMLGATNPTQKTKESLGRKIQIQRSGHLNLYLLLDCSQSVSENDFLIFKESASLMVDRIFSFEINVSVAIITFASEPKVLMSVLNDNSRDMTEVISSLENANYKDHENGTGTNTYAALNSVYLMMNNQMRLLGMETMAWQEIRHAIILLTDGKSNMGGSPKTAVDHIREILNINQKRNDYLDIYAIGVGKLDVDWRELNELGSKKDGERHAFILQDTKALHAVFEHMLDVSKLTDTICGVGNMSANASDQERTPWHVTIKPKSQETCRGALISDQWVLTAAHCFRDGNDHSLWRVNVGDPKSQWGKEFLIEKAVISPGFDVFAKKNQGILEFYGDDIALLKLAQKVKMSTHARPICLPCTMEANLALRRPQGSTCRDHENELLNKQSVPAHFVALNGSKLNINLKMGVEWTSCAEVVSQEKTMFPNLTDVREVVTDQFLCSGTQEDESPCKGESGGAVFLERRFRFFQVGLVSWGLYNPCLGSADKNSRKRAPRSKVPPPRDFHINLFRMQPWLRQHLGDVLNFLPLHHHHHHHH

human C2 R493A = biological target: T4, human C2 R493A (human, UniProt P06681 21-752)
T4 sequence: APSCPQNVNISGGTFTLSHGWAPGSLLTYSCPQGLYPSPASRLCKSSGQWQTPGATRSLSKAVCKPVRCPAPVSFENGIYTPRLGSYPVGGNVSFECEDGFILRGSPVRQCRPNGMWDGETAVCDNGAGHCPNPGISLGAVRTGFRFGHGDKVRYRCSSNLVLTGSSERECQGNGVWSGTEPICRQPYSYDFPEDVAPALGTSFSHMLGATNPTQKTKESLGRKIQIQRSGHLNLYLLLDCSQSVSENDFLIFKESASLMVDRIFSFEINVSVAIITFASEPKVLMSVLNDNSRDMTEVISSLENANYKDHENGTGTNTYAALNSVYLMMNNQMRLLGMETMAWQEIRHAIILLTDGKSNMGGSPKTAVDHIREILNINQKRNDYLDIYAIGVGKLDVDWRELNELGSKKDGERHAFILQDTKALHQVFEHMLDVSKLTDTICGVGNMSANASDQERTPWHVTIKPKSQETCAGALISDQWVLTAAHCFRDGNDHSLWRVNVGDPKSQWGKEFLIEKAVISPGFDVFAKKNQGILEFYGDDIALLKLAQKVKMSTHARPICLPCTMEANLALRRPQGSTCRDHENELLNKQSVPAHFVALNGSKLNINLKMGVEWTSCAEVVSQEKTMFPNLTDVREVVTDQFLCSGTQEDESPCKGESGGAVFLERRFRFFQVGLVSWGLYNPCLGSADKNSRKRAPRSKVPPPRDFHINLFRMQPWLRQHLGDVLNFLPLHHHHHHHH

B1: RF16-242 (antibody, human IgG4 S228P, lambda, V domains shown)
VH: EVQLLQSGAEVKKPGESLKISCKGSGYSFTSYWIGWVRQMPGKGLEWMGIIYPGDSDTRYSPSFQGQVTISADKSISTAYLQWSSLKASDTAMYYCARRGHYGDYFDYWGQGTLVTVSS
VL: SYELTQPPSVSVSPGQTARITCSGDALPKKYAYWYHQKSGQAPVLVIYEDRRRPSEIPERFSGSSSGTMATLTITGAQVEDEGVYFCYSRDRAGNQRVFGGGTQLTVLG
notes: pH-dependent anti-C2 antibody from a phage display library
B1 showed a Kd (human C2 R434A) of 98.9 nM, a Kd (human C2 H435A) of 62.5 nM and a Kd (human C2 Q447A) of 26 nM. For the same binder, the Kd (human C2 R493A) was 7.2 nM.
